Source: patent publication US20210130436A1
Each block holds one substance with its values, some of them ahead of it.

Tests used:
[1] = molecular target: human PD-L1, full length, expressed on transfected HEK293 cells (human) (UniProt Q9NZQ7); assay: flow cytometry, HEK293 cells transfected with human PD-L1
[2] = molecular target: human CD28, full length, expressed on transfected HEK293 cells (human) (UniProt P10747); assay: flow cytometry, HEK293 cells transfected with human CD28
[3] = molecular target: CD28, endogenously expressed on Jurkat/IL2 reporter cells (human) (UniProt P10747); assay: flow cytometry, Jurkat/IL2 reporter cells (endogenous CD28)
[4] = molecular target: human CTLA4 (full-length, expressed on CHO cells) (human) (UniProt P16410); assay: flow cytometry, CHO cells expressing huCTLA4, PE anti-human Fc
human CTLA4 (full-length, expressed on CHO cells) (human), sequence (P16410 36-223): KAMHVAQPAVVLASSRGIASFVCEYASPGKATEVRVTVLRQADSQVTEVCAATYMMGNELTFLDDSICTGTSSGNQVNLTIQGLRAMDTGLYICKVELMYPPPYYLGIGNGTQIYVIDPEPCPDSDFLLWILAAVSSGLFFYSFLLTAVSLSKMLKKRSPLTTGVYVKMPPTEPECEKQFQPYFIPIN

[5] = molecular target: PD-1 (PDCD1) (Homo sapiens (Human)) (UniProt Q15116); assay: cell-based or functional assay
PD-1 (PDCD1) (Homo sapiens (Human)), sequence (Q15116 21-288): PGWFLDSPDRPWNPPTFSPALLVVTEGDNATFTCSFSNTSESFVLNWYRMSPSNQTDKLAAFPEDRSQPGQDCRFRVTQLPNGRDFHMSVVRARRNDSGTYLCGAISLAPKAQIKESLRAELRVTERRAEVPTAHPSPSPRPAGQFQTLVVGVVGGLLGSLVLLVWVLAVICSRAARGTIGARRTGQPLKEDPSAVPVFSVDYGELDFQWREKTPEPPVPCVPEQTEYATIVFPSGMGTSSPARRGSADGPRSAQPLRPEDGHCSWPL

human PD-L1, full length, expressed on transfected HEK293 cells (human), sequence (Q9NZQ7 19-290): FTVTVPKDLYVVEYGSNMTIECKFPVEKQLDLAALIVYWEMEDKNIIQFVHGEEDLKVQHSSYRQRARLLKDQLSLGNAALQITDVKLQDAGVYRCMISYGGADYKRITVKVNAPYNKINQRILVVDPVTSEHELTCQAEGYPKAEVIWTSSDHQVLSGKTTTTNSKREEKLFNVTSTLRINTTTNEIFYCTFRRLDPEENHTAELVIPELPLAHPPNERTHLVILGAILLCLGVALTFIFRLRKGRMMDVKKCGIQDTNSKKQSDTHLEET

MFI at 22.2 nM [1]: 1870 MFI
Substance: variant CD80 IgV-Fc T13R/M42V/M47I/A71D (from UniProt P33681 35-141) (Fc fusion)

MFI at 22.2 nM [1]: 1450 MFI
Substance: variant CD80 IgV-Fc Q27H/E35G/A71D/L72P/T79I (from UniProt P33681 35-141) (Fc fusion)

MFI at 22.2 nM [1]: 1400 MFI
Substance: variant CD80 IgV-Fc V22L/E35G/A71D/L72P (from UniProt P33681 35-141) (Fc fusion)

MFI at 66.6 nM [2]: 2450 MFI
Substance: variant CD80 IgV-Fc Y31H/E35D/T41S/V68L/K93R/R94W (from UniProt P33681 35-141) (Fc fusion)

MFI at 33.3 nM [3]: 15 MFI
Substance: variant CD80 IgV-Fc Q33L/E35D/M47V/T62S/V68M/L85M (from UniProt P33681 35-141) (Fc fusion)

MFI at 33.3 nM [4]: 15900 MFI
Substance: variant CD80 IgV-Fc Q33L/E35D/M47I (from UniProt P33681 35-141) (Fc fusion)

MFI at 22.2 nM [1]: 3400 MFI
Substance: variant CD80 IgV-Fc M47V/I69F/A71D/V83I (from UniProt P33681 35-141) (Fc fusion)

MFI at 33.3 nM [3]: 16 MFI
Substance: variant CD80 IgV-Fc R29C/E35D/M47L/V68M/A71G/L85M (from UniProt P33681 35-141) (Fc fusion)

MFI at 66.6 nM [2]: 2270 MFI
Substance: variant CD80 IgV-Fc A26E/E35D/M47L/L85Q (from UniProt P33681 35-141) (Fc fusion)

MFI at 33.3 nM [4]: 8660 MFI
Substance: variant CD80 IgV-Fc E35D/M47I/K54R/L85E (from UniProt P33681 35-141) (Fc fusion)

MFI at 22.2 nM [1]: 1690 MFI
Substance: variant CD80 IgV-Fc L70Q/A71D (from UniProt P33681 35-141) (Fc fusion)

MFI at 33.3 nM [3]: 15 MFI
Substance: variant CD80 IgV-Fc Q33R/E35D/M38I/M47L/V68M (from UniProt P33681 35-141) (Fc fusion)

MFI at 22.2 nM [1]: 1850 MFI
MFI at 66.6 nM [2]: 1500 MFI
Substance: variant CD80 IgV-Fc V22L/E35D/M43L/A71G/D76H (from UniProt P33681 35-141) (Fc fusion)

MFI at 33.3 nM [3]: 14 MFI
Substance: variant CD80 IgV-Fc E35D/D46E/M47L/V68M/T79M/L85M/L97Q (from UniProt P33681 35-141) (Fc fusion)

MFI at 22.2 nM [1]: 1760 MFI
Substance: variant CD80 IgV-Fc E35D/T57A/A71D/L85Q (from UniProt P33681 35-141) (Fc fusion)

MFI at 33.3 nM [3]: 15 MFI
Substance: variant CD80 IgV-Fc E24D/E35D/M47L/V68M/E95V/L97Q (from UniProt P33681 35-141) (Fc fusion)

MFI at 66.6 nM [2]: 1900 MFI
Substance: variant CD80 IgV-Fc N55I/T57I/I69F (from UniProt P33681 35-141) (Fc fusion)

MFI at 33.3 nM [3]: 14 MFI
Substance: variant CD80 IgV-Fc E35D/M47L/V68M/E95V/L97Q (from UniProt P33681 35-141) (Fc fusion)

MFI at 22.2 nM [1]: 3550 MFI
Substance: variant CD80 IgV-Fc V20I/A71D (from UniProt P33681 35-141) (Fc fusion)

IFN gamma levels pg/mL (MLR) [5]: 1270 pg/mL
Substance: PD-L2 H15Q/Q72H/V89D IgV-Fc (from UniProt Q9BQ51 20-121) (Fc fusion)

IFN gamma levels pg/mL (MLR) [5]: 1500 pg/mL
Substance: PD-L2 E44D IgV-Fc (from UniProt Q9BQ51 20-121) (Fc fusion)

IFN gamma levels pg/mL (MLR) [5]: 1320 pg/mL
Substance: PD-L2 H15Q/S67L/R76G/I85F IgV-Fc (from UniProt Q9BQ51 20-121) (Fc fusion)

MFI at 33.3 nM [3]: 15 MFI
Substance: variant CD80 IgV-Fc Q27L/Q33L/E35D/T41S/M47V/N48K/V68M/L85M (from UniProt P33681 35-141) (Fc fusion)

IFN gamma levels pg/mL (MLR) [5]: 1500 pg/mL
Substance: PD-L2 H15Q/L33H/S67L/R76G/Q82R/V89D IgV-Fc (from UniProt Q9BQ51 20-121) (Fc fusion)

MFI at 22.2 nM [1]: 1080 MFI
Substance: variant CD80 IgV-Fc H18Y/A71D/L72P/E88V (from UniProt P33681 35-141) (Fc fusion)

IFN gamma levels pg/mL (MLR) [5]: 1290 pg/mL
Substance: PD-L2 H15Q/N32D/S67L/V89D IgV-Fc (from UniProt Q9BQ51 20-121) (Fc fusion)

MFI at 22.2 nM [1]: 1050 MFI
Substance: variant CD80 IgV-Fc Q27L/E35D/M47I/T57I/L70Q/E88D (from UniProt P33681 35-141) (Fc fusion)
